{"source": "the supplement of paper PMC10567573", "parents": {"B1": {"name": "KLHL12 (parent)", "chain": "REESLPNLLQYVRMPLLTPRYITD"}}, "data": [{"variants_of": "B1", "assay": "protein stability index of a GFP-peptide fusion (GPS, HEK-293T) (PSI 1-6); higher = more stable", "details": "c terminus: a fixed tail appended", "values": [{"variant": "REESLPNLLQYVRMPLLCPRYITD", "note": "[T18C]", "protein stability index": 1.96}, {"variant": "RDESLPNLLQYVRMPLLTPRYITD", "note": "[E2D]", "protein stability index": 2.38}, {"variant": "REESLPNLLQYVRMRLLTPRYITD", "note": "[P15R]", "protein stability index": 1.69}, {"variant": "REESLPNLLQYVRMPLLTCRYITD", "note": "[P19C]", "protein stability index": 2.28}, {"variant": "REESLPNLLQYVRMPLMTPRYITD", "note": "[L17M]", "protein stability index": 2.63}, {"variant": "REESLPNLLQSVRMPLLTPRYITD", "note": "[Y11S]", "protein stability index": 3.33}, {"variant": "REESLPNLSQYVRMPLLTPRYITD", "note": "[L9S]", "protein stability index": 3.36}, {"variant": "REESLPNLLQYVRMKLLTPRYITD", "note": "[P15K]", "protein stability index": 1.57}, {"variant": "REESLPNLLQYVRMPLDTPRYITD", "note": "[L17D]", "protein stability index": 3.43}, {"variant": "REESLPNLLQYVRMPLLQPRYITD", "note": "[T18Q]", "protein stability index": 2.5}, {"variant": "REESLPNLLQYVRMDLLTPRYITD", "note": "[P15D]", "protein stability index": 2.01}, {"variant": "REESRPNLLQYVRMPLLTPRYITD", "note": "[L5R]", "protein stability index": 2.52}, {"variant": "RTESLPNLLQYVRMPLLTPRYITD", "note": "[E2T]", "protein stability index": 3.35}, {"variant": "REESLPNLLQYVRMPLLTPRYITN", "note": "[D24N]", "protein stability index": 2.35}, {"variant": "REESLPNLLQYVRMPGLTPRYITD", "note": "[L16G]", "protein stability index": 2.84}, {"variant": "REESLPNFLQYVRMPLLTPRYITD", "note": "[L8F]", "protein stability index": 2.4}, {"variant": "REESLPNALQYVRMPLLTPRYITD", "note": "[L8A]", "protein stability index": 3.24}, {"variant": "REESLPNLLQYVRMPLTTPRYITD", "note": "[L17T]", "protein stability index": 2.54}, {"variant": "REESLHNLLQYVRMPLLTPRYITD", "note": "[P6H]", "protein stability index": 2.13}, {"variant": "REESLPNLLQYVRMTLLTPRYITD", "note": "[P15T]", "protein stability index": 2.65}, {"variant": "REESLPNLLQYVRMPLLTPRYIQD", "note": "[T23Q]", "protein stability index": 2.65}, {"variant": "REESLPNLLQYVRMPLLTPRYITF", "note": "[D24F]", "protein stability index": 2.04}, {"variant": "REESLPNLLQYVRMPLLTPRQITD", "note": "[Y21Q]", "protein stability index": 3.85}, {"variant": "REESLYNLLQYVRMPLLTPRYITD", "note": "[P6Y]", "protein stability index": 2.58}, {"variant": "REESLPNLLQYVRMPLSTPRYITD", "note": "[L17S]", "protein stability index": 2.87}, {"variant": "REESLPNLLQYVRMPLLTPRYVTD", "note": "[I22V]", "protein stability index": 2.18}, {"variant": "REESLPNLLQYVRMPLLTPMYITD", "note": "[R20M]", "protein stability index": 1.97}, {"variant": "REESLPNLTQYVRMPLLTPRYITD", "note": "[L9T]", "protein stability index": 3.45}, {"variant": "REESLPNLLKYVRMPLLTPRYITD", "note": "[Q10K]", "protein stability index": 2.38}, {"variant": "REESLPNLLQYKRMPLLTPRYITD", "note": "[V12K]", "protein stability index": 2.81}, {"variant": "VEESLPNLLQYVRMPLLTPRYITD", "note": "[R1V]", "protein stability index": 2.35}, {"variant": "REESLPNLLQYVRMPLLTPHYITD", "note": "[R20H]", "protein stability index": 2.56}, {"variant": "REESLPNLIQYVRMPLLTPRYITD", "note": "[L9I]", "protein stability index": 2.32}, {"variant": "REESLPNLLQYVRMPLLTPRYISD", "note": "[T23S]", "protein stability index": 2.66}, {"variant": "REESLPALLQYVRMPLLTPRYITD", "note": "[N7A]", "protein stability index": 2.64}, {"variant": "REESLPLLLQYVRMPLLTPRYITD", "note": "[N7L]", "protein stability index": 2.01}, {"variant": "REESLPNLLQYVRMPLLTPRMITD", "note": "[Y21M]", "protein stability index": 2.97}, {"variant": "REESLPNLLQYVRMNLLTPRYITD", "note": "[P15N]", "protein stability index": 2.42}, {"variant": "REESLPNLLQYVRMPLLTPTYITD", "note": "[R20T]", "protein stability index": 2.15}, {"variant": "REESLPNLLQYVRWPLLTPRYITD", "note": "[M14W]", "protein stability index": 2.13}, {"variant": "REESLPNLLQYWRMPLLTPRYITD", "note": "[V12W]", "protein stability index": 1.81}, {"variant": "REESLPNLLQYDRMPLLTPRYITD", "note": "[V12D]", "protein stability index": 3.7}, {"variant": "REESLCNLLQYVRMPLLTPRYITD", "note": "[P6C]", "protein stability index": 2.05}, {"variant": "REESLPNLLAYVRMPLLTPRYITD", "note": "[Q10A]", "protein stability index": 2.47}, {"variant": "REESLPNLLQYVRYPLLTPRYITD", "note": "[M14Y]", "protein stability index": 2.58}, {"variant": "REESLPNLLQYVRMALLTPRYITD", "note": "[P15A]", "protein stability index": 1.58}, {"variant": "REESLPNMLQYVRMPLLTPRYITD", "note": "[L8M]", "protein stability index": 2.69}, {"variant": "REESLPNLLQYVRMPLRTPRYITD", "note": "[L17R]", "protein stability index": 3.48}, {"variant": "REESLPNLLQYVRMPLLLPRYITD", "note": "[T18L]", "protein stability index": 2.42}, {"variant": "REESLPNLLQYVRMPLLTFRYITD", "note": "[P19F]", "protein stability index": 2.17}, {"variant": "REESLPNLLQYVRMPLLSPRYITD", "note": "[T18S]", "protein stability index": 2.27}, {"variant": "REESLPNLLQYVRMPLLTPRYIND", "note": "[T23N]", "protein stability index": 2.85}, {"variant": "REESLPYLLQYVRMPLLTPRYITD", "note": "[N7Y]", "protein stability index": 1.71}, {"variant": "SEESLPNLLQYVRMPLLTPRYITD", "note": "[R1S]", "protein stability index": 2.7}, {"variant": "RLESLPNLLQYVRMPLLTPRYITD", "note": "[E2L]", "protein stability index": 2.47}, {"variant": "REESLPNLLQYVRMPPLTPRYITD", "note": "[L16P]", "protein stability index": 2.77}, {"variant": "REESLPNHLQYVRMPLLTPRYITD", "note": "[L8H]", "protein stability index": 3.27}, {"variant": "REESLPNLLQYVRMPLLTPDYITD", "note": "[R20D]", "protein stability index": 3.03}, {"variant": "REESLPQLLQYVRMPLLTPRYITD", "note": "[N7Q]", "protein stability index": 2.65}, {"variant": "REESLPNLLQYVRMPLLTPRYITL", "note": "[D24L]", "protein stability index": 1.71}, {"variant": "REESLPNLLQYVRMPLLTSRYITD", "note": "[P19S]", "protein stability index": 2.14}, {"variant": "RCESLPNLLQYVRMPLLTPRYITD", "note": "[E2C]", "protein stability index": 3.52}, {"variant": "REESDPNLLQYVRMPLLTPRYITD", "note": "[L5D]", "protein stability index": 3.15}, {"variant": "REESLPKLLQYVRMPLLTPRYITD", "note": "[N7K]", "protein stability index": 2.73}, {"variant": "REESLPNLLQYVRMPLWTPRYITD", "note": "[L17W]", "protein stability index": 2.33}, {"variant": "PEESLPNLLQYVRMPLLTPRYITD", "note": "[R1P]", "protein stability index": 2.16}, {"variant": "REESLPNSLQYVRMPLLTPRYITD", "note": "[L8S]", "protein stability index": 3.21}, {"variant": "REESLPNLLQYVRMPLLTPRYHTD", "note": "[I22H]", "protein stability index": 2.86}, {"variant": "REESLPNLLQYVYMPLLTPRYITD", "note": "[R13Y]", "protein stability index": 2.53}, {"variant": "REESLPNLLQYNRMPLLTPRYITD", "note": "[V12N]", "protein stability index": 3.1}, {"variant": "REESLPNYLQYVRMPLLTPRYITD", "note": "[L8Y]", "protein stability index": 2.67}, {"variant": "RFESLPNLLQYVRMPLLTPRYITD", "note": "[E2F]", "protein stability index": 2.4}, {"variant": "REESLPNLLQYVRMPLLHPRYITD", "note": "[T18H]", "protein stability index": 2.52}, {"variant": "REESLPNLLQYVRMPILTPRYITD", "note": "[L16I]", "protein stability index": 2.45}, {"variant": "REESLPNLLQYVFMPLLTPRYITD", "note": "[R13F]", "protein stability index": 2.06}, {"variant": "REEGLPNLLQYVRMPLLTPRYITD", "note": "[S4G]", "protein stability index": 2.69}, {"variant": "REESLPNLLQYVRMPLLTPSYITD", "note": "[R20S]", "protein stability index": 2.72}, {"variant": "REETLPNLLQYVRMPLLTPRYITD", "note": "[S4T]", "protein stability index": 2.34}, {"variant": "REESLPNLLQYVRMPFLTPRYITD", "note": "[L16F]", "protein stability index": 2.27}, {"variant": "REESLPNLLQQVRMPLLTPRYITD", "note": "[Y11Q]", "protein stability index": 3.42}, {"variant": "REESMPNLLQYVRMPLLTPRYITD", "note": "[L5M]", "protein stability index": 2.9}, {"variant": "REESLPNLLQYVRMPLLKPRYITD", "note": "[T18K]", "protein stability index": 2.19}, {"variant": "REESLPNLLQYVRKPLLTPRYITD", "note": "[M14K]", "protein stability index": 3.46}, {"variant": "REVSLPNLLQYVRMPLLTPRYITD", "note": "[E3V]", "protein stability index": 2.45}, {"variant": "REESLPNLLQYVRMPLLTPAYITD", "note": "[R20A]", "protein stability index": 2.19}, {"variant": "REESLPNLLIYVRMPLLTPRYITD", "note": "[Q10I]", "protein stability index": 4.07}, {"variant": "REESLPNLVQYVRMPLLTPRYITD", "note": "[L9V]", "protein stability index": 2.51}, {"variant": "REESLPNTLQYVRMPLLTPRYITD", "note": "[L8T]", "protein stability index": 3.12}, {"variant": "REESLPNLLQYVRNPLLTPRYITD", "note": "[M14N]", "protein stability index": 2.4}, {"variant": "REESLPNLLQAVRMPLLTPRYITD", "note": "[Y11A]", "protein stability index": 2.76}, {"variant": "REESLPNLLQYVRMPLLNPRYITD", "note": "[T18N]", "protein stability index": 1.7}, {"variant": "REESLPNLLQYVRMPLLTPRYIVD", "note": "[T23V]", "protein stability index": 2.04}, {"variant": "REESLPNLLQYVEMPLLTPRYITD", "note": "[R13E]", "protein stability index": 2.84}, {"variant": "REESLPNLLQYVRMPLLTPRYITQ", "note": "[D24Q]", "protein stability index": 2.5}]}]}
